Legend:
Assay in all cases: pull-down
[1] = molecular target: EGFP-tagged NHSL1-F1 with all 11 EndoA2 binding sites and both FP4 motifs mutated (human)
[2] = molecular target: EGFP-tagged NHSL1-F1 with both FP4 motifs mutated (human)
[3] = molecular target: EGFP-tagged NHSL1-F1 with the two Abi binding sites mutated (human)
[4] = molecular target: EGFP-tagged NHSL1-F1 with all 11 EndoA2 binding sites mutated (human)
[5] = molecular target: EGFP-tagged NHSL1-F1 with the 9 EndoA2 sites that do not bind Abi mutated (human)

## Myc-tagged wild-type EndoA2 (endophilin A2) (from UniProt O35964 1-368) (natural protein)
[1]
  fold reduction in binding against wild-type NHSL1: 5 fold
[2]
  fold reduction in binding against wild-type NHSL1: 2 fold
[3]
  fold reduction in binding against wild-type NHSL1: 5 fold
[4]
  fold reduction in binding against wild-type NHSL1: 5 fold
[5]
  fold reduction in binding against wild-type NHSL1: 5 fold

— article doi:10.1101/2024.10.23.619882
